The values below come from paper PMC7316235, “Computational and structure-guided design of phosphoinositide substrate specificity into the tyrosine specific LMW-PTP enzyme” (PLoS ONE, 2020).

For data set [1], the target named is T1, LMW-PTP (LMW-PTPB) (Homo sapiens, UniProt P24666, L14R/I17K, form not given).
T1 construct: gene ACP1; N-terminal 6xHis tag (pNIC28a-Bsa4, TEV-cleavable; cleavage described only for crystallisation); E. coli BL21-DE3
T1 sequence (P24666 1-158 isoform P24666-2 L14R/I17K): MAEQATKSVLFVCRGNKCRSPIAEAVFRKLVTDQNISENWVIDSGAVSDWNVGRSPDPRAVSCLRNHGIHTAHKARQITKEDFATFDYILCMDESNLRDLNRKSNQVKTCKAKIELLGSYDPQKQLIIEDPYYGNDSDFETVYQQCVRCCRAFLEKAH
Description: malachite green phosphate release, Michaelis-Menten fit. Conditions: pH 5.5, 37 °C, diC8 lipid. Type of data set: biochemical. From the text:
(§1) malachite green phosphate release, Michaelis-Menten fit on LMW-PTP (LMW-PTPB)

The target in data set [2] is T1, LMW-PTP (LMW-PTPB). Description: pNPP assay, Michaelis-Menten fit. The class given is biochemical. Conditions: pH 5.5, 37 °C; read-out: RK / Km. From the text: (§2) pNPP assay, Michaelis-Menten fit on LMW-PTP (LMW-PTPB)
For data set [3], the target named is T2, LMW-PTP (LMW-PTPB) (Homo sapiens, UniProt P24666, L14R/I17T, form not given).
T2 construct: gene ACP1; N-terminal 6xHis tag (pNIC28a-Bsa4, TEV-cleavable; cleavage described only for crystallisation); E. coli BL21-DE3
T2 sequence (P24666 1-158 isoform P24666-2 L14R/I17T): T1 sequence (P24666 1-158 isoform P24666-2 L14R/I17K) with K17T
Description: malachite green phosphate release, Michaelis-Menten fit. The class given is biochemical. The conditions noted are these: pH 5.5, 37 °C, diC8 lipid.
Source text: as §1

Substrate in data set [4]: CCCCCCCC(=O)OC[C@H](COP(=O)(O)O[C@@H]1[C@H](O)[C@H](OP(=O)(O)O)[C@@H](O)[C@H](OP(=O)(O)O)[C@H]1O)OC(=O)CCCCCCC
The data set is described as above. Type of data set: biochemical, Homo sapiens. The conditions noted are these: pH 7.5, 37 °C, diC8 lipid. The text has this:
malachite green phosphate release, Michaelis-Menten fit on MTMR2

Substrate in data set [5]: N[C@@H](Cc1ccc(OP(=O)(O)O)cc1)C(=O)O
The description is as above. Type of data set: biochemical, Homo sapiens. The conditions noted are these: pH 5.5, 37 °C.
Source text: as §1

Substrate in data set [6]: O=[N+]([O-])c1ccc(OP(=O)(O)O)cc1
Description: pNPP assay, Michaelis-Menten fit. Type of data set: biochemical, Homo sapiens. Conditions: pH 5.5, 37 °C.
Source text: as §2

Changes are numbered by the printed parent chain. Where two headings read alike, the source gives them in different places.

Turning to `CCCCCCCC(=O)OC[C@H](COP(=O)(O)O[C@H]1[C@H](O)[C@@H](O)[C@H](OP(=O)(O)O)[C@@H](O)[C@H]1O)OC(=O)CCCCCCC` [PI(4)P], the Km in data set [1] (read-out: RK / Km) stood at 30.7 ± 3.5 µM.

`O=[N+]([O-])c1ccc(OP(=O)(O)O)cc1` [pNPP]: the Km in data set [2] turned out to be 1.39 ± 0.105 mM.

As to `CCCCCCCC(=O)OC[C@H](COP(=O)(O)O[C@@H]1[C@H](O)[C@H](OP(=O)(O)O)[C@@H](O)[C@H](O)[C@H]1O)OC(=O)CCCCCCC` [PI(3)P], the Km in data set [1] (read-out: RK / Km) was determined as 22.9 ± 5 µM.

With `CCCCCCCC(=O)OC[C@H](COP(=O)(O)O[C@H]1[C@H](O)[C@@H](OP(=O)(O)O)[C@H](O)[C@@H](O)[C@H]1O)OC(=O)CCCCCCC` [PI(5)P], the Km was 29.2 ± 3.7 µM in data set [3] (read-out: RT / Km), 26.2 ± 3.9 µM in data set [3] (read-out: RTK / Km), 35.9 ± 6.3 µM in data set [1] (read-out: RK / Km) and 27.2 ± 7 µM in data set [1] (read-out: RKK / Km).

B1: MTMR2 (Homo sapiens) (protein)
chain: MEKSSSCESLGSQPAAARPPSVDSLSSASTSHSENSVHTKSASVVSSDSISTSADNFSPDLRVLRESNKLAEMEEPPLLPGENIKDMAKDVTYICPFTGAVRGTLTVTNYRLYFKSMERDPPFVLDASLGVINRVEKIGGASSRGENSYGLETVCKDIRNLRFAHKPEGRTRRSIFENLMKYAFPVSNNLPLFAFEYKEVFPENGWKLYDPLLEYRRQGIPNESWRITKINERYELCDTYPALLVVPANIPDEELKRVASFRSRGRIPVLSWIHPESQATITRCSQPMVGVSGKRSKEDEKYLQAIMDSNAQSHKIFIFDARPSVNAVANKAKGGGYESEDAYQNAELVFLDIHNIHVMRESLRKLKEIVYPNIEETHWLSNLESTHWLEHIKLILAGALRIADKVESGKTSVVVHCSDGWDRTAQLTSLAMLMLDGYYRTIRGFEVLVEKEWLSFGHRFQLRVGHGDKNHADADRSPVFLQFIDCVWQMTRQFPTAFEFNEYFLITILDHLYSCLFGTFLCNSEQQRGKENLPKRTVSLWSYINSQLEDFTNPLYGSYSNHVLYPVASMRHLELWVGYYIRWNPRMKPQEPIHNRYKELLAKRAELQKKVEELQREISNRSTSSSERASSPAQCVTPVQTVV
notes: E. coli BL21-DE3
What is called kcat is the maximal rate divided by the concentration of active sites. For B1, in data set [4], the Km worked out at 62 ± 4 µM and the kcat is reported as 348 ± 17 x 10^-3 s^-1.

B2: LMW-PTP (LMW-PTPB) (Homo sapiens) (protein)
chain: T1 sequence (P24666 1-158 isoform P24666-2 L14R/I17K) with R14L, K17I
notes: N-terminal 6xHis tag (pNIC28a-Bsa4, TEV-cleavable; cleavage described only for crystallisation); E. coli BL21-DE3
One may read the kcat/Km as the turnover number divided by the Michaelis constant. As for B2, in data set [5], the Km is 307 ± 29 µM, the kcat is 0.000226 ± 1.9e-05 s⁻¹ and the kcat/Km is 0.735 ± 0.054 M⁻¹ s⁻¹. Moreover, in data set [6], the Km was found to be 476 ± 30.2 µM, the kcat worked out at 6.03 ± 0.106 s⁻¹ and the specificity constant (kcat/Km) was 12700 ± 670 M⁻¹ s⁻¹.
